The target of test [1] is T1, human FcγRIIb receptor protein (R&D Systems) (human, UniProt P31994 46-217).
T1 construct: Bought protein injected over captured antibody in Biacore; also called CD32b
T1 sequence (looked up): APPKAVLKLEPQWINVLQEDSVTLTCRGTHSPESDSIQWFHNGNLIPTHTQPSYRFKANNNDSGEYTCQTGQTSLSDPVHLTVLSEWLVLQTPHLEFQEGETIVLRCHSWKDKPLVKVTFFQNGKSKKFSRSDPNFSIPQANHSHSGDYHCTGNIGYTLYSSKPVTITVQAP
The experiment in a line: SPR. As for the experimental part:
(§1) Variants were screened for receptor affinity using Biacore™ technology, also referred to as Biacore herein, a surface plasmon resonance (SPR) based technology for studying biomolecular interactions in real time. SPR measurements were performed using a Biacore 3000 instrument (Biacore, Piscataway, N.J.). A protein A/G (Pierce Biotechnology) CM5 biosensor chip (Biacore) was generated using a standard primary amine coupling protocol. All measurements were performed using HBS-EP buffer (10 mM HEPES pH 7.4, 0.15 M NaCl, 3 mM EDTA, 0.005% vol/vol surfactant P20, Biacore). Antibodies at 20 nM or 50 nM in HBS-EP buffer were immobilized on the protein A/G surface and FcγRs were injected. After each cycle, the surface was regenerated by injecting glycine buffer (10 mM, pH 1.5). Data were processed by zeroing time and response before the injection of FcγR and by subtracting appropriate nonspecific signals (response of reference channel and injection of running buffer). Kinetic analyses were performed by global fitting of binding data with a 1:1 Langmuir binding model using BIAevaluation software (Biacore).
A general note: SPR reads the build-up and loss of mass on a sensor chip optically.

In test [2] the target is T2, human FcγRIIa (131R), His- and GST-tagged (human, UniProt P12318 34-217).
T2 construct: Expressed in HEK293T cells, purified by nickel chromatography; also called R131 FcγRIIa; not shown: 6xHis and GST tags of the pTT5 vector
T2 sequence (looked up): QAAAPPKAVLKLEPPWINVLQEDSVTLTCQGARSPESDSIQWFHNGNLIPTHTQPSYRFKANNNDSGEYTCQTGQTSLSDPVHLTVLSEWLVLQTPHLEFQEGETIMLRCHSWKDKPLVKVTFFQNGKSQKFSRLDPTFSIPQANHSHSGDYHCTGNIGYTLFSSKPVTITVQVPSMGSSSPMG
The experiment in a line: SPR. As for the experimental part:
as §1

B1: G236D/H268D (antibody, human IgG1, kappa)
heavy: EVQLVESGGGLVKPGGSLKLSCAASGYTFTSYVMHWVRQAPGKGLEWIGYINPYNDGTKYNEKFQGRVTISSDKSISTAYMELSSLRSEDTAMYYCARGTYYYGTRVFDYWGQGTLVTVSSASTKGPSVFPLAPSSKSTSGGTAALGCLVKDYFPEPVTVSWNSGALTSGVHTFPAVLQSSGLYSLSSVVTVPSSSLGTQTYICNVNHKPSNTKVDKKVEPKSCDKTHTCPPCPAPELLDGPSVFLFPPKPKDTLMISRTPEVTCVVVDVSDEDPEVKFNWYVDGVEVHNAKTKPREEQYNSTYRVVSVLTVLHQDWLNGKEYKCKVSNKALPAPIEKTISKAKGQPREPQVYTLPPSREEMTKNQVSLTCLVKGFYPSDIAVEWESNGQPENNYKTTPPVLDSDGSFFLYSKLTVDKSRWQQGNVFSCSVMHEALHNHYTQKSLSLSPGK
light: DIVMTQSPATLSLSPGERATLSCRSSKSLQNVNGNTYLYWFQQKPGQSPQLLIYRMSNLNSGVPDRFSGSGSGTEFTLTISSLEPEDFAVYYCMQHLEYPITFGAGTKLEIKRTVAAPSVFIFPPSDEQLKSGTASVVCLLNNFYPREAKVQWKVDNALQSGNSQESVTEQDSKDSTYSLSSTLTLSKADYEKHKVYACEVTHQGLSSPVTKSFNRGEC
notes: HuAM4G7 anti-CD19 IgG1 (m1) with these Fc substitutions, EU index; copies: 2 + 2
Broadly, the Kd is the equilibrium constant for the complex coming apart. Low values mean tighter binding, high ones weaker binding. In the case of B1, in test [1], the “Fold vs WT IgG1” value is 11.6 fold and the Kd is 0.126 µM.

B2: S267D/H268E (antibody, human IgG1, kappa)
heavy: not shown
light: DIVMTQSPATLSLSPGERATLSCRSSKSLQNVNGNTYLYWFQQKPGQSPQLLIYRMSNLNSGVPDRFSGSGSGTEFTLTISSLEPEDFAVYYCMQHLEYPITFGAGTKLEIKRTVAAPSVFIFPPSDEQLKSGTASVVCLLNNFYPREAKVQWKVDNALQSGNSQESVTEQDSKDSTYSLSSTLTLSKADYEKHKVYACEVTHQGLSSPVTKSFNRGEC
notes: as for B1
As for B2, in test [1], the “Fold vs WT IgG1” value amounted to 17.8 fold and the Kd turned out to be 0.0826 µM.

B3: G236Y (antibody, human IgG1, kappa)
heavy: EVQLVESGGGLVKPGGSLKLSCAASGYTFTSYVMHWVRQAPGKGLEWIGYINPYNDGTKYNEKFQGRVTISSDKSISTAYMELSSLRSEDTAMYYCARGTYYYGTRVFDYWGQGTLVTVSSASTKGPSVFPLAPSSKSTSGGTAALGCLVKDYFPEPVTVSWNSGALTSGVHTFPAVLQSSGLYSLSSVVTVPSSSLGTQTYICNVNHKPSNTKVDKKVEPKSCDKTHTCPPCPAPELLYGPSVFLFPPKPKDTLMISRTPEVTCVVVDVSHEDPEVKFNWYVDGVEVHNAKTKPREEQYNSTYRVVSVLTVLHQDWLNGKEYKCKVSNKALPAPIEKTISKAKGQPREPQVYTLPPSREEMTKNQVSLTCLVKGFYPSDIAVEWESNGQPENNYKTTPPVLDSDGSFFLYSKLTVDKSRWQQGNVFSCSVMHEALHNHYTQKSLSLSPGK
light: DIVMTQSPATLSLSPGERATLSCRSSKSLQNVNGNTYLYWFQQKPGQSPQLLIYRMSNLNSGVPDRFSGSGSGTEFTLTISSLEPEDFAVYYCMQHLEYPITFGAGTKLEIKRTVAAPSVFIFPPSDEQLKSGTASVVCLLNNFYPREAKVQWKVDNALQSGNSQESVTEQDSKDSTYSLSSTLTLSKADYEKHKVYACEVTHQGLSSPVTKSFNRGEC
notes: HuAM4G7 anti-CD19 IgG1 (m1) with this Fc substitution, EU index; copies: 2 + 2
Take B3: the binding result in test [1] and in test [2] was “no binding” each time.

B4: S267D/A327D (antibody, human IgG1, kappa)
heavy: not shown
light: DIVMTQSPATLSLSPGERATLSCRSSKSLQNVNGNTYLYWFQQKPGQSPQLLIYRMSNLNSGVPDRFSGSGSGTEFTLTISSLEPEDFAVYYCMQHLEYPITFGAGTKLEIKRTVAAPSVFIFPPSDEQLKSGTASVVCLLNNFYPREAKVQWKVDNALQSGNSQESVTEQDSKDSTYSLSSTLTLSKADYEKHKVYACEVTHQGLSSPVTKSFNRGEC
notes: as for B1
With B4, in test [1], the “Fold vs WT IgG1” value turned out to be 6.89 fold and binding was put at a Kd of 0.213 µM.

B5: G236I (antibody, human IgG1, kappa)
heavy: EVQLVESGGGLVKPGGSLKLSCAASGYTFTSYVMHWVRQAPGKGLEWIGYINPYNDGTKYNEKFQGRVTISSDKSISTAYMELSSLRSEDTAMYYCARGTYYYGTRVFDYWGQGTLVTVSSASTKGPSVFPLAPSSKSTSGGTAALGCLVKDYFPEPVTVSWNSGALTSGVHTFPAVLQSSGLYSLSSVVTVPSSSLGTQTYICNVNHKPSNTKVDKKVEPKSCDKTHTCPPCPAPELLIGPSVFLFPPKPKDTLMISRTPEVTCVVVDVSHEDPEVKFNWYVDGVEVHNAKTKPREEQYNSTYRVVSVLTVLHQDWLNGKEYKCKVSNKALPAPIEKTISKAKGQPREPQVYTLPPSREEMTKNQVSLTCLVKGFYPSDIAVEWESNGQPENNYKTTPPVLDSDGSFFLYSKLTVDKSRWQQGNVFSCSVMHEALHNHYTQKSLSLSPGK
light: DIVMTQSPATLSLSPGERATLSCRSSKSLQNVNGNTYLYWFQQKPGQSPQLLIYRMSNLNSGVPDRFSGSGSGTEFTLTISSLEPEDFAVYYCMQHLEYPITFGAGTKLEIKRTVAAPSVFIFPPSDEQLKSGTASVVCLLNNFYPREAKVQWKVDNALQSGNSQESVTEQDSKDSTYSLSSTLTLSKADYEKHKVYACEVTHQGLSSPVTKSFNRGEC
notes: as for B3
Consider B5, for which the binding result in test [1] and in test [2] was “no binding” throughout.

B6: G236K (antibody, human IgG1, kappa)
heavy: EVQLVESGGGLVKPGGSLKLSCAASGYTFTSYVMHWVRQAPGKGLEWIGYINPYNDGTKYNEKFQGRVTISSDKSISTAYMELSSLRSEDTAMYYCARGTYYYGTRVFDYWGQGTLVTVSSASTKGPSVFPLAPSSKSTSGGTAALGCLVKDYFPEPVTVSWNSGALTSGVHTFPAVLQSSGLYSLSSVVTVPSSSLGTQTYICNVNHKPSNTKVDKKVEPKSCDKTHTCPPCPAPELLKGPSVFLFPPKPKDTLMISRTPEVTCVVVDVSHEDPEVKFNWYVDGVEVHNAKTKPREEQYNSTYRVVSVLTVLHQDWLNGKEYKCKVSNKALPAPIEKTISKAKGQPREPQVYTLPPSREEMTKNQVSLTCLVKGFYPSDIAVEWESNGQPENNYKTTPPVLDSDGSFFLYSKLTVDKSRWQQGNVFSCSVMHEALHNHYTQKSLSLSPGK
light: DIVMTQSPATLSLSPGERATLSCRSSKSLQNVNGNTYLYWFQQKPGQSPQLLIYRMSNLNSGVPDRFSGSGSGTEFTLTISSLEPEDFAVYYCMQHLEYPITFGAGTKLEIKRTVAAPSVFIFPPSDEQLKSGTASVVCLLNNFYPREAKVQWKVDNALQSGNSQESVTEQDSKDSTYSLSSTLTLSKADYEKHKVYACEVTHQGLSSPVTKSFNRGEC
notes: as for B3
For B6, the results for the “Fold vs WT IgG1” value in test [1] and in test [2] were 0.0147 fold and 0.00859 fold, respectively. The Kd in test [1] and in test [2] was 100 µM throughout.

B7: L235S/S267E (antibody, human IgG1, kappa)
heavy: not shown
light: DIVMTQSPATLSLSPGERATLSCRSSKSLQNVNGNTYLYWFQQKPGQSPQLLIYRMSNLNSGVPDRFSGSGSGTEFTLTISSLEPEDFAVYYCMQHLEYPITFGAGTKLEIKRTVAAPSVFIFPPSDEQLKSGTASVVCLLNNFYPREAKVQWKVDNALQSGNSQESVTEQDSKDSTYSLSSTLTLSKADYEKHKVYACEVTHQGLSSPVTKSFNRGEC
notes: as for B1
As for B7, in test [1], the Kd was 37.8 µM.

B8: S267E/H268D (antibody, human IgG1, kappa)
heavy: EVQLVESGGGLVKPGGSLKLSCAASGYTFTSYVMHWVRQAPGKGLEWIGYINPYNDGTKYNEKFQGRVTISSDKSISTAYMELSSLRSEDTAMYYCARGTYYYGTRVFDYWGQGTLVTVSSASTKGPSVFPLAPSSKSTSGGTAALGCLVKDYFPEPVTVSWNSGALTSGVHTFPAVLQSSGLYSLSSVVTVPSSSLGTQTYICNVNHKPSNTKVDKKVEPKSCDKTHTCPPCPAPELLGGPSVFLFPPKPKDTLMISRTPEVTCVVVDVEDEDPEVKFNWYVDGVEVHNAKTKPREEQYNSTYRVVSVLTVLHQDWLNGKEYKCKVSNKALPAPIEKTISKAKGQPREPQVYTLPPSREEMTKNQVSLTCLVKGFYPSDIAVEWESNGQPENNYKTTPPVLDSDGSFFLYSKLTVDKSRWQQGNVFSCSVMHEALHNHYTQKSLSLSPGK
light: DIVMTQSPATLSLSPGERATLSCRSSKSLQNVNGNTYLYWFQQKPGQSPQLLIYRMSNLNSGVPDRFSGSGSGTEFTLTISSLEPEDFAVYYCMQHLEYPITFGAGTKLEIKRTVAAPSVFIFPPSDEQLKSGTASVVCLLNNFYPREAKVQWKVDNALQSGNSQESVTEQDSKDSTYSLSSTLTLSKADYEKHKVYACEVTHQGLSSPVTKSFNRGEC
notes: as for B1
Take B8: in test [1], the “Fold vs WT IgG1” value is 33.3 fold and the Kd was found to be 0.044 µM.

B9: L234E/H268D (antibody, human IgG1, kappa)
heavy: not shown
light: DIVMTQSPATLSLSPGERATLSCRSSKSLQNVNGNTYLYWFQQKPGQSPQLLIYRMSNLNSGVPDRFSGSGSGTEFTLTISSLEPEDFAVYYCMQHLEYPITFGAGTKLEIKRTVAAPSVFIFPPSDEQLKSGTASVVCLLNNFYPREAKVQWKVDNALQSGNSQESVTEQDSKDSTYSLSSTLTLSKADYEKHKVYACEVTHQGLSSPVTKSFNRGEC
notes: as for B1
With B9, in test [1], the “Fold vs WT IgG1” value came out at 5.89 fold and the Kd was determined as 0.249 µM.

B10: G236M (antibody, human IgG1, kappa)
heavy: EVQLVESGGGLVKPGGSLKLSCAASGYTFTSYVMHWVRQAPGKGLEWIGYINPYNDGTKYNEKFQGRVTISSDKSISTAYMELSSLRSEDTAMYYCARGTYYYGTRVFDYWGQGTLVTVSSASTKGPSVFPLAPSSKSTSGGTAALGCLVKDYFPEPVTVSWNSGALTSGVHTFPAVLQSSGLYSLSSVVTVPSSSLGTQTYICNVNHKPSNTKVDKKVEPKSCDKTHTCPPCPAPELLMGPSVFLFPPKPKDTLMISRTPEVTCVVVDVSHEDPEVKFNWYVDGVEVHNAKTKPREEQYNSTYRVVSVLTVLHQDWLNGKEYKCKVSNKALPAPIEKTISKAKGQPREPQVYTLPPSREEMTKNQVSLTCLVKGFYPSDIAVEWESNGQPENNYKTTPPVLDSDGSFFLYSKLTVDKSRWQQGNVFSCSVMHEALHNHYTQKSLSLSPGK
light: DIVMTQSPATLSLSPGERATLSCRSSKSLQNVNGNTYLYWFQQKPGQSPQLLIYRMSNLNSGVPDRFSGSGSGTEFTLTISSLEPEDFAVYYCMQHLEYPITFGAGTKLEIKRTVAAPSVFIFPPSDEQLKSGTASVVCLLNNFYPREAKVQWKVDNALQSGNSQESVTEQDSKDSTYSLSSTLTLSKADYEKHKVYACEVTHQGLSSPVTKSFNRGEC
notes: as for B3
For the molecule B10, in test [1], the “Fold vs WT IgG1” value turned out to be 0.147 fold and the Kd amounted to 10 µM. In addition, in test [2], the “Fold vs WT IgG1” value came out at 0.0859 fold and the Kd is 10 µM.

B11: G236Q (antibody, human IgG1, kappa)
heavy: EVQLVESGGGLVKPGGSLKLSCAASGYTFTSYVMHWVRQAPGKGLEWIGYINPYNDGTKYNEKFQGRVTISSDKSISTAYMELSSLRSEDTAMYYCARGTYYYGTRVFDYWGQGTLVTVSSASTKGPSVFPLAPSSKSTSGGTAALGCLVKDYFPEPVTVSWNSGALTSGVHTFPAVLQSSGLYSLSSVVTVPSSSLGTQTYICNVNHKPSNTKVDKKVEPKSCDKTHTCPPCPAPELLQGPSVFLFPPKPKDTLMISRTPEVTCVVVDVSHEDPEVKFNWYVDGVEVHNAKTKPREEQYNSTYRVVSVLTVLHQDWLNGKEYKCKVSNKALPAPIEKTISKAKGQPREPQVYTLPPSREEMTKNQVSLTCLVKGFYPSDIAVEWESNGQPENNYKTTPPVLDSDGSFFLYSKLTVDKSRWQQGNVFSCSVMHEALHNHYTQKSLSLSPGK
light: DIVMTQSPATLSLSPGERATLSCRSSKSLQNVNGNTYLYWFQQKPGQSPQLLIYRMSNLNSGVPDRFSGSGSGTEFTLTISSLEPEDFAVYYCMQHLEYPITFGAGTKLEIKRTVAAPSVFIFPPSDEQLKSGTASVVCLLNNFYPREAKVQWKVDNALQSGNSQESVTEQDSKDSTYSLSSTLTLSKADYEKHKVYACEVTHQGLSSPVTKSFNRGEC
notes: as for B3
As for B11, in test [1], the “Fold vs WT IgG1” value was 0.147 fold and the dissociation constant Kd was 10 µM. In test [2], the “Fold vs WT IgG1” value is 0.0859 fold and the Kd turned out to be 10 µM.

B12: G236L (antibody, human IgG1, kappa)
heavy: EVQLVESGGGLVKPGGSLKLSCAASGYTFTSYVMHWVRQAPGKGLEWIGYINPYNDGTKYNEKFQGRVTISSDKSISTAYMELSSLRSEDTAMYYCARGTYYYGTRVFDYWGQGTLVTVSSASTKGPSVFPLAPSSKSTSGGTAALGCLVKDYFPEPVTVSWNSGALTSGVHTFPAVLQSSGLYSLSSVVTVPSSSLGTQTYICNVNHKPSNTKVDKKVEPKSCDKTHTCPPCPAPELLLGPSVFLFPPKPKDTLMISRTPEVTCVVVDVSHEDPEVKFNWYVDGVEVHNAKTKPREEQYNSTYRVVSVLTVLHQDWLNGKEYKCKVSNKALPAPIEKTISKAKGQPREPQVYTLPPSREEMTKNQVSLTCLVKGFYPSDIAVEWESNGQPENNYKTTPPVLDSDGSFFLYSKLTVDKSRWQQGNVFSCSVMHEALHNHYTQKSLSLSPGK
light: DIVMTQSPATLSLSPGERATLSCRSSKSLQNVNGNTYLYWFQQKPGQSPQLLIYRMSNLNSGVPDRFSGSGSGTEFTLTISSLEPEDFAVYYCMQHLEYPITFGAGTKLEIKRTVAAPSVFIFPPSDEQLKSGTASVVCLLNNFYPREAKVQWKVDNALQSGNSQESVTEQDSKDSTYSLSSTLTLSKADYEKHKVYACEVTHQGLSSPVTKSFNRGEC
notes: as for B3
Take B12: the binding result in test [1] and in test [2] was “no binding” in each case.

B13: G236W (antibody, human IgG1, kappa)
heavy: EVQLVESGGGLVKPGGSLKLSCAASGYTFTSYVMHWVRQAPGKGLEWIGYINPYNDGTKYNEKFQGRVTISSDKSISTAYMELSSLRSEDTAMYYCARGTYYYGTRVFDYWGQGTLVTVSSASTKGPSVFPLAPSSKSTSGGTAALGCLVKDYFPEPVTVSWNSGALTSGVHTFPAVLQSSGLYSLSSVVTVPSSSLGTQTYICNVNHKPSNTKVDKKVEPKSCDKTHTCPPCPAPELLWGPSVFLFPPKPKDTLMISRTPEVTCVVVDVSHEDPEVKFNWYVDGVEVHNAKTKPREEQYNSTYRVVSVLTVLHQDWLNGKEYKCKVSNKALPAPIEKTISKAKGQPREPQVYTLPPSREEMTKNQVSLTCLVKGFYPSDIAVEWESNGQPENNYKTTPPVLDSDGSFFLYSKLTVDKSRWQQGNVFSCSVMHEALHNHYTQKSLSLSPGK
light: DIVMTQSPATLSLSPGERATLSCRSSKSLQNVNGNTYLYWFQQKPGQSPQLLIYRMSNLNSGVPDRFSGSGSGTEFTLTISSLEPEDFAVYYCMQHLEYPITFGAGTKLEIKRTVAAPSVFIFPPSDEQLKSGTASVVCLLNNFYPREAKVQWKVDNALQSGNSQESVTEQDSKDSTYSLSSTLTLSKADYEKHKVYACEVTHQGLSSPVTKSFNRGEC
notes: as for B3
As for B13, the entries for the “Fold vs WT IgG1” value in test [1] and in test [2] were 0.147 fold and 0.0859 fold, respectively. In addition, the Kd in test [1] and in test [2] was 10 µM each time.

B14: L235Y/S267D (antibody, human IgG1, kappa)
heavy: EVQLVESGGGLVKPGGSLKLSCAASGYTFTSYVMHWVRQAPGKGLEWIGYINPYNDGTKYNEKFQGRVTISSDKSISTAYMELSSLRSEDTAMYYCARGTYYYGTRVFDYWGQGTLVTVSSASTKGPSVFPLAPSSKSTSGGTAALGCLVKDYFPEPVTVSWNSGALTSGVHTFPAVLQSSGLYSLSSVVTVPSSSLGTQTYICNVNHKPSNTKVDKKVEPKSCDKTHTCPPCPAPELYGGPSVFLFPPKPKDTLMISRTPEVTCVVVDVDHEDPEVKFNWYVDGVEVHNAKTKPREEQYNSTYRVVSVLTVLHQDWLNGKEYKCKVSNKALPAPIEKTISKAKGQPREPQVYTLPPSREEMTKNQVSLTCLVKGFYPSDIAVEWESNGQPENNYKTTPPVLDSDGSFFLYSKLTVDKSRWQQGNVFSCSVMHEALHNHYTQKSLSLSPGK
light: DIVMTQSPATLSLSPGERATLSCRSSKSLQNVNGNTYLYWFQQKPGQSPQLLIYRMSNLNSGVPDRFSGSGSGTEFTLTISSLEPEDFAVYYCMQHLEYPITFGAGTKLEIKRTVAAPSVFIFPPSDEQLKSGTASVVCLLNNFYPREAKVQWKVDNALQSGNSQESVTEQDSKDSTYSLSSTLTLSKADYEKHKVYACEVTHQGLSSPVTKSFNRGEC
notes: as for B1
With B14, in test [1], the “Fold vs WT IgG1” value stood at 15.9 fold and the Kd was found to be 0.0922 µM.

B15: S267D/A327E (antibody, human IgG1, kappa)
heavy: not shown
light: DIVMTQSPATLSLSPGERATLSCRSSKSLQNVNGNTYLYWFQQKPGQSPQLLIYRMSNLNSGVPDRFSGSGSGTEFTLTISSLEPEDFAVYYCMQHLEYPITFGAGTKLEIKRTVAAPSVFIFPPSDEQLKSGTASVVCLLNNFYPREAKVQWKVDNALQSGNSQESVTEQDSKDSTYSLSSTLTLSKADYEKHKVYACEVTHQGLSSPVTKSFNRGEC
notes: as for B1
As for B15, in test [1], the “Fold vs WT IgG1” value came to 12.1 fold and binding was put at a Kd of 0.121 µM.

B16: G236H (antibody, human IgG1, kappa)
heavy: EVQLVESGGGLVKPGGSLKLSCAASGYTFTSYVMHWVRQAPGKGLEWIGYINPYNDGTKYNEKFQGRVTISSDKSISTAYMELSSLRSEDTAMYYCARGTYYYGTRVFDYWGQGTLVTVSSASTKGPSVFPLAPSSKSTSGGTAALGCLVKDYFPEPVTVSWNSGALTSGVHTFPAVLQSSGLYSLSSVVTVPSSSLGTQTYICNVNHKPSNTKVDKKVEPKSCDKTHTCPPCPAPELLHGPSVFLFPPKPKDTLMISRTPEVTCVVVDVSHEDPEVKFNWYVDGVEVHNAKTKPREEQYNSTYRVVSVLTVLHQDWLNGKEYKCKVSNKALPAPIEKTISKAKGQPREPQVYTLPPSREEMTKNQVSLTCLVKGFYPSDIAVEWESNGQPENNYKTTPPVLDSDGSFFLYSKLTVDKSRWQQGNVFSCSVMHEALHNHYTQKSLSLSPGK
light: DIVMTQSPATLSLSPGERATLSCRSSKSLQNVNGNTYLYWFQQKPGQSPQLLIYRMSNLNSGVPDRFSGSGSGTEFTLTISSLEPEDFAVYYCMQHLEYPITFGAGTKLEIKRTVAAPSVFIFPPSDEQLKSGTASVVCLLNNFYPREAKVQWKVDNALQSGNSQESVTEQDSKDSTYSLSSTLTLSKADYEKHKVYACEVTHQGLSSPVTKSFNRGEC
notes: as for B3
Consider B16, for which the binding result in test [1] is recorded as “no binding”. Besides, in test [2], the “Fold vs WT IgG1” value was 0.135 fold and the dissociation constant Kd was 6.35 µM.

The record behind these values is patent US20130315910A1 (Xencor, published 2013).
